In paper PMC11305080 (2024) one finds Kd data, which are given here for 3 molecules.

B3: HIT01-K21Q-R218E (cleavage-resistant variant of HIT01) (designed binder)
chain 1: DYSEDQEVKAPQLDHPDPGTERVAELLRCTKSVWRIPEQYLVVLREGTRDSHVQRTVSTLRAQAARRGHAIHIMHTYSGVFHGFLIKMSSEVLPMALKLPHVAYIEEDSSIFAQ
chain 2: SIPWNLQRIIQTKHETGKYTPPNDGAQVTVFLLDTSVQTDHREIEGKVMVTDFNSMPKEDGTRFHESASKCESHGTHIAGVLSGRDAGVARGVSVNTVRVLNCQGRGTVSGALAGLEYIRASLQAQPVSPVIILLPFVGGFSRTLNTACREMVHSGAVLIAAAGNYQDDACMYSPASEPEVITVGASNAADRPLSSGTTGTNLGRCVDVFAPGEDIISASGDCSTCFVSMSGTSQSAAHAAGIAAVLLNAYPSASPAEVLQLLRYHAVQRVINPDSLPPEHYLTTPDMVAALPTSAATGEKLLCRSVWSKRSGVGSFDTAVARCRHGEEMFSCSSYSPNGVHAGERIEIRDGQKVCEAHHGIGGQGVYAVARCCTGSRVKCHASASLHVGIDAECPSQEFQLTGCSSHYIRSQDVAQPSWPLHSNRKACPAGEGGTSHAFCCHAPNLECHLIEHHQSEFTKQVEVSCEDSWTLTGCNAVSHGSVTHAAYTRGNTCVIQMFGGDKGAAAIAICCRYRPLDQQSNNNHEQNT

What all share (assay): BLI
Assay [1] has as its target B3.
For assay [2], the target named is human proprotein convertase subtilisin/kexin type 9 (PCSK9) (human, UniProt Q8NBP7 153-692).
The target in another assay is J16.

B1: 1D05 Fab (Fab, V domains shown)
VH: QVQLVQSGAEVKKPGSSVKVSCKASGGTFNSHAISWVRQAPGQGLEWMGGINPILGIANYAQKFQGRVTITADESTSTAYMELSSLRSEDTAVYYCARHYEIQIGRYGMNVYYLMYRFASWGQGTLVTVSS
VL: DIQMTQSPSSLSASVGDRVTITCRASQGIRSALNWYQQKPGKAPKLLIYNGSTLQSGVPSRFSGSGSGTDFTLTISSLQPEDFAVYYCQQFDGDPTFGQGTKVEIK
Regarding B1, binding in assay [1] was characterised by a dissociation constant (Kd) of 1.83 nM.

B2: AMG145 (evolocumab) IgG (antibody, V domains shown)
VH: EVQLVQSGAEVKKPGASVKVSCKASGYTLTSYGISWVRQAPGQGLEWMGWVSFYNGNTNYAQKLQGRGTMTTDPSTSTAYMELRSLRSDDTAVYYCARGYGMDVWGQGTTVTVSS
VL: ESALTQPASVSGSPGQSITISCTGTSSDVGGYNSVSWYQQHPGKAPKLMIYEVSNRPSGVSNRFSGSKSGNTASLTISGLQAEDEADYYCNSYTSTSMVFGGGTKLTVL
Turning to B2, the Kd in assay [2] was determined as 0.17 nM; in assay [1] it was 0.19 nM. Turning to B3, the Kd in the assay with J16 is 0.62 nM.
